The record followed here is US20260176352A1 (BIRD ROCK BIO, published 2026).

Where a chain is given by its changes, count along the chain named. In names and notes the source's numbering stands. Several values for one entry are separate records, joined by “and”; a condition that tells them apart may be missing. Identical values can stand only once.

In assay [1] the target is T1, native full length human CB1 receptor (cannabinoid 1 receptor) (human, UniProt P21554 1-472). The experiment in a line: cell-based or functional assay.
The target of assay [2] is T1, native full length human CB1 receptor …. The experiment in a line: flow cytometry, TRex-CHO full length native human CB1 cells; mean. As to the method: (§1) After being washed with 200 μL of FACS buffer twice, cells were incubated with secondary antibody for 30 minutes on ice. Cells were washed with 200 μL of FACS buffer twice and transferred to BD Falcon 5 mL tube and analyzed by FACS. Data analysis and measurement of binding affinity (KD) was performed using GraphPad Prism software.
In general terms: In flow cytometry, cells or beads pass a laser one at a time.

The target is the same in assay [3]. As to the kind of experiment: flow cytometry, TRex-CHO full length native human CB1 cells; Exp 1. As to the method:
as §1

Assay [4] has the same target. As to the kind of experiment: flow cytometry, TRex-CHO full length native human CB1 cells; Exp 2. Here is the method: as §1
Assay [5] has the same target. The experiment in a line: cell-based or functional assay. This is another data set of the same source.
Assay [6] has the same target. As to the kind of experiment: flow cytometry, Fab on TRex-CHO human CB1 cells.
Assay [7] shares this target. As to the kind of experiment: flow cytometry on TRex-CHO cells stably transfected with tetracycline inducible CB1, FITC-conjugated anti-human antibody [panel A].
For assay [8] the target is unchanged. The experiment in a line: cell-based or functional assay. This is another data set of the same source.
Assay [9] shares this target. As to the kind of experiment: cell-based or functional assay. This is another data set of the same source.
Assay [10] has the same target. The experiment in a line: cell-based or functional assay. This is another data set of the same source.
In assay [11] the target is T2, TRex CHO A56 over-expressed CB1 (CB1 T210A/fusion partner) (UniProt P21554 1-472).
T2 construct: whole, on cells; The fusion partner stands inside the CB1 chain in place of ICL3, not at its end; also called Trex-CHO CB1 T210A/fusion partner; not shown: fusion partner that replaces ICL3
The experiment in a line: flow cytometry, TRexCHO A56 cells. As to the method:
(§2) After being washed with 200 μl of FACS buffer twice, cells were incubated with PE conjugated anti-human secondary antibody (Southern Biotech) for 30 minutes on ice. Cells were washed with 200 μl of FACS buffer twice and transferred to BD Falcon 5 ml tube and analyzed by flow cytometry (BD FACScalibur).

Assay [12] addresses T1, native full length human CB1 receptor …. The experiment in a line: flow cytometry, TRexCHO A156 cells. Here is the method:
as §2

Assay [13] shares this target. The experiment in a line: flow cytometry, TRex-CHO human CB1 cells; mean ± SD. As to the method: (§3) TRex CHO parental cells, and TRex-CHO cells stably transfected with tetracycline inducible human CB1, human CB2 or mouse CB1 expression constructs were harvested. […] Cells were then centrifuged at 4° C. at 1600 rpm for 3 minutes; supernatant was aspirated and cells were washed with 200 μL FACS buffer. The washing procedure was repeated twice. After the final wash, cells were re-suspended in FACS buffer containing PE-conjugated anti-human Fc secondary antibody (1:200 dilutions) and incubated at 4° C. for 30 minutes. Cells were washed with 200 μL FACS buffer twice and analyzed by flow cytometry (Guava). Data analysis and measurement of binding affinity (KD) was performed using GraphPad Prism software.

The target is the same in assay [14]. The experiment in a line: flow cytometry, TRex-CHO human CB1 cells; mean of batch 1. Here is the method:
as §3

Assay [15] shares this target. As to the kind of experiment: flow cytometry, TRex-CHO human CB1 cells; mean of batch 2. Here is the method:
as §3

For assay [16] the target is unchanged. As to the kind of experiment: flow cytometry, TRex-CHO human CB1 cells; mean of batch 3. Here is the method: as §3
A further assay deals with T3, mouse CB1 (mouse, UniProt P47746 1-473).
T3 construct: whole, on cells; also called TRexCHO Mouse CB1
T3 sequence (P47746 whole entry): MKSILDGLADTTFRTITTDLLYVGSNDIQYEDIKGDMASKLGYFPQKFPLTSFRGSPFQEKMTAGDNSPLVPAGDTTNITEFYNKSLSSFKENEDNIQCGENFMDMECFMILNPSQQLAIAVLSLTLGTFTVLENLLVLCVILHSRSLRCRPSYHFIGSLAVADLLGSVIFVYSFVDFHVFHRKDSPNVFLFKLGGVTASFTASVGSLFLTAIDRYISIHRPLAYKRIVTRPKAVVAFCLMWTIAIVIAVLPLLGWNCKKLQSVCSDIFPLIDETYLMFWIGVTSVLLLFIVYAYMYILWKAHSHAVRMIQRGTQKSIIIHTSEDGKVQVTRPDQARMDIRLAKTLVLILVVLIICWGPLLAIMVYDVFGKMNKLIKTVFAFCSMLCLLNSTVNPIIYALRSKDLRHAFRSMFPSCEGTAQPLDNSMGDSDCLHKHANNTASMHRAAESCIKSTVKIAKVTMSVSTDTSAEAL
As to the kind of experiment: flow cytometry on TRex-CHO mouse CB1 cells, lower panel. As to the method:
as §2

The target of another assay is T4, human CB2 (human, UniProt P34972 1-360).
T4 construct: whole, on cells; also called TRexCHO Human CB2
T4 sequence (P34972 whole entry): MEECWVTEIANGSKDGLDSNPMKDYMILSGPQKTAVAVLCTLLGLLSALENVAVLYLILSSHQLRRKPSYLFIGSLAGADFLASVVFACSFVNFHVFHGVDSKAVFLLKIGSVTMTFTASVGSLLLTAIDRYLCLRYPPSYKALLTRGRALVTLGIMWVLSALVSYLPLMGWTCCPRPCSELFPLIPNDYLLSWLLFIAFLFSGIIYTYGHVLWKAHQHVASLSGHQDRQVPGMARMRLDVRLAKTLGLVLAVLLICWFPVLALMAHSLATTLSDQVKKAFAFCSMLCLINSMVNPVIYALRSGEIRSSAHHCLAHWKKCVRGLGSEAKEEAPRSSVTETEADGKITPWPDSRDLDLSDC
As to the kind of experiment: flow cytometry on TRex-CHO human CB2 cells, middle panel. As to the method: as §2

Assay [17] deals with T1, native full length human CB1 receptor …. The experiment in a line: flow cytometry on TRex-CHO cells with tetracycline inducible human CB1. Here is the method:
as §3

B1: RY-LC-B12 FACS3 (IgG4 S228P) (antibody, V domains shown)
VH: QVQLVQSGAEVKKPGSSVKVSCKASGYEFSYYWMNWVRQAPGQGLEWMGQIYPGDGETKYAQKFQGRVTITADKSTSTAYMELSSLRSEDTAVYYCARSHGNYLPYWGQGTLVTVSS
VL: EIVLTQSPATLSLSPGERATLSCRASQSVSSRYLHWYQQKPGQAPRLLIYSTSRLASGIPARFSGSGSGTDFTLTISRLEPEDFAVYYCQQYHRSPPTFGQGTKVEIKR
In the case of B1, in assay [1], the “Exp 1 IC50 (nM), cAMP antagonist assay” value is 40.9 nM. In addition, the “Exp 2 IC50 (nM), cAMP antagonist assay” value in assay [1] turned out to be 32.9 nM. Further, the “Exp 3 IC50 (nM), cAMP antagonist assay” value in [1] amounted to 39.7 nM. Besides, the figures for the dissociation constant Kd in assay [2], in assay [3] and in assay [4] were 8.82 nM, 8.75 nM and 8.89 nM, respectively.

B2: P1C4-h2 Fab (Fab, V domains shown)
VH: B1 VH
VL: EIVLTQSPATLSLSPGERATLSCRASQSVSSSYLHWYQQKPGQAPRLLIYSTSNLASGIPARFSGSGSGTDFTLTISRLEPEDFAVYYCHQYHRSPPTFGQGTKVEIK
notes: Fab; constant parts not described; also called humanized P1C4 Fab h2
For the molecule B2, the “IC50 cAMP assay” value in assay [5] worked out at 52 nM. Moreover, in assay [6], the Kd is 14 nM. The half-maximal effective concentration (EC50 (read off the curve)) in assay [7] fell in the range of 10 to 20 nM.

B3: P1C4-h4 Fab (Fab, V domains shown)
VH: B1 VH with A61N, Q62G
VL: B2 VL
notes: Fab; constant parts not described; also called humanized P1C4 Fab h4
As to B3, in [5], the “IC50 cAMP assay” value came to 43 nM. Besides, in [8], the “IC50 (read off the curve), cAMP assay [panel B]” value is about 40 nM. Besides, the affinity in assay [6], expressed as Kd, was 16.2 nM. Moreover, the “EC50 (read off the curve)” value in assay [7] was about 20 nM.

B4: P1C4-h0-IgG1 (antibody, V domains shown)
VH: B1 VH with Y27G, E28T
VL: B1 VL with R32S, R54N, Q90H
notes: also called P1C4-H0 No mutation; PA12R3-P1C4 HO (no back mutation)
In the case of B4, the “IC50 (nM), cAMP assay” value in assay [9] stood at 146 nM. Moreover, in assay [10], the “cAMP IC50 (nM) Mean of Batch 1 [n]” value was 158 nM. The “cAMP IC50 (nM) Mean of Batch 2 [n]” value in [10] was found to be 343 nM. Besides, the Kd in assay [11] was 4.5 nM; in assay [12] it was 25 nM; in [13] it was 24 nM; in assay [14], 23 nM; in assay [15], 24 nM; in assay [16], 24 nM. Further, the binding result with mouse CB1 and with human CB2 was “no binding (tested: about 300 nM (last point))” each time. In assay [17], the 50% effective concentration (EC50 (read off the curve)) is ~10 nM and ~20 nM.

Broadly, the Kd is the concentration at which binding is half-saturated. Read a high Kd as a looser complex. Usually EC50 (read off the curve) stands for the concentration giving half of the maximal effect. A low value points to greater potency.
